Key:
[1] = target: the molecule itself; experiment: non-reducing SDS-PAGE
[2] = target: tSTATcc (truncated STAT1, C-C dimer) (UniProt P42224 132-713, A656C;N658C); experiment: Spec-seq
[3] = target: tSTATcc-N460H (UniProt P42224 132-713, N460H;A656C;N658C); experiment: Spec-seq
Chain of tSTATcc-N460H (P42224 132-713 N460H/A656C/N658C): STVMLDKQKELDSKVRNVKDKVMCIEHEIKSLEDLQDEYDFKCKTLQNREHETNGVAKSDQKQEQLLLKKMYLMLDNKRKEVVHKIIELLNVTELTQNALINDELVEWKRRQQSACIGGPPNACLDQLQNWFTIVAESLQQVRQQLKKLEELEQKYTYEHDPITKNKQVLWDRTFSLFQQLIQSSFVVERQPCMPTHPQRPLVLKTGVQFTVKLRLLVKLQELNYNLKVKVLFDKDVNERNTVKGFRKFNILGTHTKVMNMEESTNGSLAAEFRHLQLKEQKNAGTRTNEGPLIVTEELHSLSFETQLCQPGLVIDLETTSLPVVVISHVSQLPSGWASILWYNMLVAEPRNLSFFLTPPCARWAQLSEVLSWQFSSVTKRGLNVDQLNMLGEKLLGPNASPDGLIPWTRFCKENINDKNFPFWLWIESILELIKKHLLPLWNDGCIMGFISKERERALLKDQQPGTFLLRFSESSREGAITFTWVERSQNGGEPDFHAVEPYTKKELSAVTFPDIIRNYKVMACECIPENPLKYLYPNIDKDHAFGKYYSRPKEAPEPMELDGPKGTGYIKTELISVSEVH

B1: tSTATcc (truncated STAT1α, amino acids 132–713, with A656C and N658C) (domain or fragment, UniProt P42224 132-713, looked up)
chain: STVMLDKQKELDSKVRNVKDKVMCIEHEIKSLEDLQDEYDFKCKTLQNREHETNGVAKSDQKQEQLLLKKMYLMLDNKRKEVVHKIIELLNVTELTQNALINDELVEWKRRQQSACIGGPPNACLDQLQNWFTIVAESLQQVRQQLKKLEELEQKYTYEHDPITKNKQVLWDRTFSLFQQLIQSSFVVERQPCMPTHPQRPLVLKTGVQFTVKLRLLVKLQELNYNLKVKVLFDKDVNERNTVKGFRKFNILGTHTKVMNMEESTNGSLAAEFRHLQLKEQKNAGTRTNEGPLIVTEELHSLSFETQLCQPGLVIDLETTSLPVVVISNVSQLPSGWASILWYNMLVAEPRNLSFFLTPPCARWAQLSEVLSWQFSSVTKRGLNVDQLNMLGEKLLGPNASPDGLIPWTRFCKENINDKNFPFWLWIESILELIKKHLLPLWNDGCIMGFISKERERALLKDQQPGTFLLRFSESSREGAITFTWVERSQNGGEPDFHAVEPYTKKELSAVTFPDIIRNYKVMACECIPENPLKYLYPNIDKDHAFGKYYSRPKEAPEPMELDGPKGTGYIKTELISVSEVH
stoichiometry N [1]: 2

B2: 1C_GAS (dsDNA)
DNA 1: GCTGCCACTAGAGTTTTTTCGGGAAAAGATCATCAAGAGCACACGGG
DNA 2: CCCGTGTGCTCTTGATGATCTTTTCCCGAAAAAACTCTAGTGGCAGC
binding signal [2]: 1.6 kT (ddG vs 2C_GAS) | binding signal [3]: 1.8 kT (ddG vs 2C_GAS)

B3: 0T_GAS (dsDNA)
DNA 1: GCTGCCACTAGAGTTTTTTTAGGAAAAGATCATCAAGAGCACACGGG
DNA 2: CCCGTGTGCTCTTGATGATCTTTTCCTAAAAAAACTCTAGTGGCAGC
binding signal [2]: 1.5 kT (ddG vs 2C_GAS) | binding signal [3]: 1.8 kT (ddG vs 2C_GAS)

B4: 1T_GAS (dsDNA)
DNA 1: GCTGCCACTAGAGTTTTTCTAGGAAAAGATCATCAAGAGCACACGGG
DNA 2: CCCGTGTGCTCTTGATGATCTTTTCCTAGAAAAACTCTAGTGGCAGC
binding signal [2]: 1.7 kT (ddG vs 2C_GAS) | binding signal [3]: 1.7 kT (ddG vs 2C_GAS)

B5: 2T_GAS (dsDNA)
DNA 1: GCTGCCACTAGAGTTTTCCTAGGAAAAGATCATCAAGAGCACACGGG
DNA 2: CCCGTGTGCTCTTGATGATCTTTTCCTAGGAAAACTCTAGTGGCAGC
binding signal [2]: 1.9 kT (ddG vs 2C_GAS) | binding signal [3]: 1.7 kT (ddG vs 2C_GAS)

B6: 3C_GAS (dsDNA)
DNA 1: GCTGCCACTAGAGTTTTCCCGGGAAAAGATCATCAAGAGCACACGGG
DNA 2: CCCGTGTGCTCTTGATGATCTTTTCCCGGGAAAACTCTAGTGGCAGC
binding signal [2]: 1.6 kT (ddG vs 2C_GAS) | binding signal [3]: 1.6 kT (ddG vs 2C_GAS)

Source: article PMC5737217 (Nucleic Acids Research, 2017)
